From patent US20030129724A1 (Harvard, published 2003) come the findings set out here.

B1: Recombinant FLAG-epitope tagged HDAC4 (enzyme, not shown: small tags and cut ends)
chain: MSSQSHPDGLSGRDQPVELLNPARVNHMPSTVDVATALPLQVAPSAVPMDLRLDHQFSLPVAEPALREQQLQQELLALKQKQQIQRQILIAEFQRQHEQLSRQHEAQLHEHIKQQQEMLAMKHQQELLEHQRKLERHRQEQELEKQHREQKLQQLKNKEKGKESAVASTEVKMKLQEFVLNKKKALAHRNLNHCISSDPRYWYGKTQHSSLDQSSPPQSGVSTSYNHPVLGMYDAKDDFPLRKTASEPNLKLRSRLKQKVAERRSSPLLRRKDGPVVTALKKRPLDVTDSACSSAPGSGPSSPNNSSGSVSAENGIAPAVPSIPAETSLAHRLVAREGSAAPLPLYTSPSLPNITLGLPATGPSAGTAGQQDTERLTLPALQQRLSLFPGTHLTPYLSTSPLERDGGAAHSPLLQHMVLLEQPPAQAPLVTGLGALPLHAQSLVGADRVSPSIHKLRQHRPLGRTQSAPLPQNAQALQHLVIQQQHQQFLEKHKQQFQQQQLQMNKIIPKPSEPARQPESHPEETEEELREHQALLDEPYLDRLPGQKEAHAQAGVQVKQEPIESDEEEAEPPREVEPGQRQPSEQELLFRQQALLLEQQRIHQLRNYQASMEAAGIPVSFGGHRPLSRAQSSPASATFPVSVQEPPTKPRFTTGLVYDTLMLKHQCTCGSSSSHPEHAGRIQSIWSRLQETGLRGKCECIRGRKATLEELQTVHSEAHTLLYGTNPLNRQKLDSKKLLGSLASVFVRLPCGGVGVDSDTIWNEVHSAGAARLAVGCVVELVFKVATGELKNGFAVVRPPGHHAEESTPMGFCYFNSVAVAAKLLQQRLSVSKILIVDWDVHHGNGTQQAFYSDPSVLYMSLHRYDDGNFFPGSGAPDEVGTGPGVGFNVNMAFTGGLDPPMGDAEYLAAFRTVVMPIASEFAPDVVLVSSGFDAVEGHPTPLGGYNLSARCFGYLTKQLMGLAGGRIVLALEGGHDLTAICDASEACVSALLGNELDPLPEKVLQQRPNANAVRSMEKVMEIHSKYWRCLQRTTSTAGRSLIEAQTCENEEAETVTAMASLSVGVKPAEKRPDEEPMEEEPPL
notes: Complete HDAC4 ORF with C-terminal FLAG tag in pBJ5, transiently expressed in TAg Jurkat cells (untreated) and immunoprecipitated with anti-FLAG agarose; also called HDAC4-FLAG; HDAC4-F

The target in series [1] is T1, HDAC3 from calyculin A-treated cells, O15379.
T1 chain: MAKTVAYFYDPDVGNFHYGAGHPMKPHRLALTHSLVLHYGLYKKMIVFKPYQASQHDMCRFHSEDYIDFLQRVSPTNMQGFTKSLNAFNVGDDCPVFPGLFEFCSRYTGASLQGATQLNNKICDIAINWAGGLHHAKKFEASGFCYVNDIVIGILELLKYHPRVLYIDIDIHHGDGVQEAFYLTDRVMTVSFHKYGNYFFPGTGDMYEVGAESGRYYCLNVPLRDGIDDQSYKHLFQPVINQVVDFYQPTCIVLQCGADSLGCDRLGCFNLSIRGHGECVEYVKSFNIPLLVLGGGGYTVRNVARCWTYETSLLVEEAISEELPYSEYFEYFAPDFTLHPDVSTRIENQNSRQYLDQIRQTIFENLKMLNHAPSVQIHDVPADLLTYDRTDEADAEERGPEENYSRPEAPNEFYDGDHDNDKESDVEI

Another series has as its target T2, CHD4 (UniProt Q14839 1-1912, limits assumed).
T2 construct: Endogenous protein detected by Western blot in immunoprecipitates; also called CHD chromodomain protein
The experiment in a line: anti-FLAG co-immunoprecipitation from TAg Jurkat cells, Western blot. (In western blotting, separated proteins are transferred to a membrane and probed.)

Another series addresses T3, mSin3A (UniProt Q96ST3 1-1273).
T3 construct: Endogenous protein detected by Western blot in immunoprecipitates; also called co-repressor mSin3A
T3 sequence (looked up): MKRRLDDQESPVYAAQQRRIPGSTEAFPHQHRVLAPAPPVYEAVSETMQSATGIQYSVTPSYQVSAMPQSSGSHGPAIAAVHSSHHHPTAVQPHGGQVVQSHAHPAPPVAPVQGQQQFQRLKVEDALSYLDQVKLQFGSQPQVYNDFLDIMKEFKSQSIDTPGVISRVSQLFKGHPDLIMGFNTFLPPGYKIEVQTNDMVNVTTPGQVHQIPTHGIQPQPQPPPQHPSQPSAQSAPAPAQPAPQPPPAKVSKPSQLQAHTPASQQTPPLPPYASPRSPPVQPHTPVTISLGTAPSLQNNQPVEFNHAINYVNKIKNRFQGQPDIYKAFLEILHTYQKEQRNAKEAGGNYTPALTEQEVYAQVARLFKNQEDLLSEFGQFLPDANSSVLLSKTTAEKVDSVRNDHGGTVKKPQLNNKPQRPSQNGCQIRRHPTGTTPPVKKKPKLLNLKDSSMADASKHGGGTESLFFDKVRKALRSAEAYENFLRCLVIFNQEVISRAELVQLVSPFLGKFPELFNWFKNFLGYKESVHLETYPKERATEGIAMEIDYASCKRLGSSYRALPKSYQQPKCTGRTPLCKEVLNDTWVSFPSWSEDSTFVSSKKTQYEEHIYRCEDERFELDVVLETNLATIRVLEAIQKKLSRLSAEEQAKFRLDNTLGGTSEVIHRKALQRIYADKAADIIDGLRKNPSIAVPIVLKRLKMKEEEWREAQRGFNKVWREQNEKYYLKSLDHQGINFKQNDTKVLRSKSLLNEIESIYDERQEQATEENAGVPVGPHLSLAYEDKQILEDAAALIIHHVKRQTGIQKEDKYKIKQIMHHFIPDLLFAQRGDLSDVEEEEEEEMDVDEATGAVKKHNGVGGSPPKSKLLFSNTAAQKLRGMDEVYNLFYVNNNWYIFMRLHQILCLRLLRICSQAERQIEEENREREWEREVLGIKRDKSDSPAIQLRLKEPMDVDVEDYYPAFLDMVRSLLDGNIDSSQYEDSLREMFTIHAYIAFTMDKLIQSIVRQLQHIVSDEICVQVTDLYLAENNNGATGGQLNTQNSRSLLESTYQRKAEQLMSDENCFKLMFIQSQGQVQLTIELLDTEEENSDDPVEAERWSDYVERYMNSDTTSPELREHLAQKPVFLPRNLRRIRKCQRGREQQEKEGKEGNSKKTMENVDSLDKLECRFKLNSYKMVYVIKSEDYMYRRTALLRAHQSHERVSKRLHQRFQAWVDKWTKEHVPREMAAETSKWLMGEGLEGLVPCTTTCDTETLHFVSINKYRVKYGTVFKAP
Description: anti-FLAG co-immunoprecipitation from TAg Jurkat cells, Western blot; an unexplained band of lower molecular weight was seen in the mSin3A blot. The source says:
Immunoprecipitates were probed with -CHD4, -mSin3A, -MTA, -RbAp48, -HDAC1, and -HDAC3 antibodies (FIG. 5B).

Series [2] has as its target B1. Description: anti-FLAG co-immunoprecipitation from TAg Jurkat cells, Western blot.
The target in series [3] is T4, Recombinant FLAG-epitope tagged HDAC6 (human, UniProt Q9UBN7 1-1215).
T4 construct: Full length ORF with C-terminal FLAG tag in pBJ5, expressed in TAg Jurkat cells; also called HDAC6-FLAG; HD6
T4 sequence: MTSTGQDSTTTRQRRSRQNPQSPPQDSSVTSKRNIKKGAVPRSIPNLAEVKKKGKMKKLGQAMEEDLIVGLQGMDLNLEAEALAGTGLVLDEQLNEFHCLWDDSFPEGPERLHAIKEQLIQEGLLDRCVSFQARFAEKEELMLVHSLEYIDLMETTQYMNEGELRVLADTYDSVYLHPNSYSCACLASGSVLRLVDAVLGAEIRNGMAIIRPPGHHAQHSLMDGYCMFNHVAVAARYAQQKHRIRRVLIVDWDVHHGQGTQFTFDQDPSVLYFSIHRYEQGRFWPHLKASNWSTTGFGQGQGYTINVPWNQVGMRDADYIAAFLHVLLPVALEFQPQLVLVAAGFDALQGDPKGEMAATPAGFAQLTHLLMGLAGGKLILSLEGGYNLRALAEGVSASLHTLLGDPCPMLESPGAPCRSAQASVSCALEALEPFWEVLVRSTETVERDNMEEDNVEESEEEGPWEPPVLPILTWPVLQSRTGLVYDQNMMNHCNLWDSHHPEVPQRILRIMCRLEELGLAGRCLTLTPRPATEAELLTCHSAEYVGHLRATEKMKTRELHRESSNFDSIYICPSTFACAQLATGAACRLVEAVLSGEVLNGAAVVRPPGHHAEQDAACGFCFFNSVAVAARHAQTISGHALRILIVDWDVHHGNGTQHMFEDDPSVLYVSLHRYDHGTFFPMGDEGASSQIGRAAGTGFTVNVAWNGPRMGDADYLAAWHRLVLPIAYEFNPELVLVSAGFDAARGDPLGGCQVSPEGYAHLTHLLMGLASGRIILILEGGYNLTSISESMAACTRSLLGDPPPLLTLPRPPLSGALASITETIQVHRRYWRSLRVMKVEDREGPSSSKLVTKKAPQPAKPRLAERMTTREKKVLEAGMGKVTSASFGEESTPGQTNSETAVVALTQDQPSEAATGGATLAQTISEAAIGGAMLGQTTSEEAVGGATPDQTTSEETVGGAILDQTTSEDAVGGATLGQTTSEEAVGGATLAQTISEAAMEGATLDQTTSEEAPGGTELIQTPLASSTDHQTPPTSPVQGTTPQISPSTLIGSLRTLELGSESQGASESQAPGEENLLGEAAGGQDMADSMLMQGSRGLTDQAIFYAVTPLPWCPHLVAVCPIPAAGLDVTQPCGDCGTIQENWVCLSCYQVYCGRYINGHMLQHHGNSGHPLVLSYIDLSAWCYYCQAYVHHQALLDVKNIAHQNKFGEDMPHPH
Described as above.

T2 sequence (Q14839 whole entry): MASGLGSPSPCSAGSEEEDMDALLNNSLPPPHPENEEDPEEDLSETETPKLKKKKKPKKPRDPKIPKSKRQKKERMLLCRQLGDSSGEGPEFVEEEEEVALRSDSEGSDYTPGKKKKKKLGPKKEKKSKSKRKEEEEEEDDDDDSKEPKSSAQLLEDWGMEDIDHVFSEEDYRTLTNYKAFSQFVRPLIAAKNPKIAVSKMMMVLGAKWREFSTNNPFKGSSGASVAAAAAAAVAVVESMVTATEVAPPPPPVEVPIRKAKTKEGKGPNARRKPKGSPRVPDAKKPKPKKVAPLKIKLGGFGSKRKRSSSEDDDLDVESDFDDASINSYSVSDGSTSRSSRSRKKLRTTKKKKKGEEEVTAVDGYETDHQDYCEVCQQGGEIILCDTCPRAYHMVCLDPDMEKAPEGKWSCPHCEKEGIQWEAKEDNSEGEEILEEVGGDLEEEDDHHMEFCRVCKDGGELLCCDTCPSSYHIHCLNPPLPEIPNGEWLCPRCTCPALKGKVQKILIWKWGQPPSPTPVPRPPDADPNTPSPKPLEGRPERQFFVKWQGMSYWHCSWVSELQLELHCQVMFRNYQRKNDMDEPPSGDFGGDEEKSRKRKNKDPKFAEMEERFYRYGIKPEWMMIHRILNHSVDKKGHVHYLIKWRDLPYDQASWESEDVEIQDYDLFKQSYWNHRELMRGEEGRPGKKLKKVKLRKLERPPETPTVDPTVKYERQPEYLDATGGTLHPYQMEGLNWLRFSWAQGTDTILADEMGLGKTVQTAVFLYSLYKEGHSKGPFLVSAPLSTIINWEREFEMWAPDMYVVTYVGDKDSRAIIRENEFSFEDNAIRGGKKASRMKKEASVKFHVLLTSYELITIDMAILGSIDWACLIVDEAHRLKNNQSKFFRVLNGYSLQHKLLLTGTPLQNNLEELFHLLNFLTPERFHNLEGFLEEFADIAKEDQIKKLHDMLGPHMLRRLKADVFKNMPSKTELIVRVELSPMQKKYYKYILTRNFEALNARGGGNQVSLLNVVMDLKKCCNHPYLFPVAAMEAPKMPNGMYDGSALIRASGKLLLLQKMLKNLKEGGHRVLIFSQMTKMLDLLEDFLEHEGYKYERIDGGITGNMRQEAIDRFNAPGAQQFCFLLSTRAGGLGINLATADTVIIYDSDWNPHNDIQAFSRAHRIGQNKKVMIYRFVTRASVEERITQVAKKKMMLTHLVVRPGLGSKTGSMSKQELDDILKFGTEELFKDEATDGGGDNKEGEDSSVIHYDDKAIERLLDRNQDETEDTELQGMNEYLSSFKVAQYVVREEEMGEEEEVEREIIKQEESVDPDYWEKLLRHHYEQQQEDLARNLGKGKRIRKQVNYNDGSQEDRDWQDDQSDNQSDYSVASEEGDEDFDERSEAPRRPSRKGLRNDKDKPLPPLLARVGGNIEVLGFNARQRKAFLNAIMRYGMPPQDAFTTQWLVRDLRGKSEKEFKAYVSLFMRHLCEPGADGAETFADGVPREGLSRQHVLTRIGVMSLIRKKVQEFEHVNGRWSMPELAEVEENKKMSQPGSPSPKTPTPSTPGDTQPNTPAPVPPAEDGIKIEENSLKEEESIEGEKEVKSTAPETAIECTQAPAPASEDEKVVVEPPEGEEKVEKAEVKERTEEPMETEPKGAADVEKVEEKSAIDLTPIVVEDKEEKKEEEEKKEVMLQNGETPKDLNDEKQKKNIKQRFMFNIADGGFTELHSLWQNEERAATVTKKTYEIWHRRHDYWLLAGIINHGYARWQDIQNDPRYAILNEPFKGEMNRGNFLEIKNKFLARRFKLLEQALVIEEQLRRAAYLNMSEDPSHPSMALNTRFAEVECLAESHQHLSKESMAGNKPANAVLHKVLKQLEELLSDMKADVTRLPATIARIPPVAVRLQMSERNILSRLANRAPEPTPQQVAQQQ

With B1, in series [1], the “immunoprecipitated HDAC activity (release of 3H-acetic acid)” value is listed as “dramatic reduction in immunoprecipitated HDAC activity”. Also, the binding result with CHD4 and with mSin3A was “no binding” in each case.

B2: MTA (other, UniProt Q13330 1-715, looked up)
chain: MAANMYRVGDYVYFENSSSNPYLIRRIEELNKTANGNVEAKVVCFYRRRDISSTLIALADKHATLSVCYKAGPGADNGEEGEIEEEMENPEMVDLPEKLKHQLRHRELFLSRQLESLPATHIRGKCSVTLLNETESLKSYLEREDFFFYSLVYDPQQKTLLADKGEIRVGNRYQADITDLLKEGEEDGRDQSRLETQVWEAHNPLTDKQIDQFLVVARSVGTFARALDCSSSVRQPSLHMSAAAASRDITLFHAMDTLHKNIYDISKAISALVPQGGPVLCRDEMEEWSASEANLFEEALEKYGKDFTDIQQDFLPWKSLTSIIEYYYMWKTTDRYVQQKRLKAAEAESKLKQVYIPNYNKPNPNQISVNNVKAGVVNGTGAPGQSPGAGRACESCYTTQSYQWYSWGPPNMQCRLCASCWTYWKKYGGLKMPTRLDGERPGPNRSNMSPHGLPARSSGSPKFAMKTRQAFYLHTTKLTRIARRLCREILRPWHAARHPYLPINSAAIKAECTARLPEASQSPLVLKQAVRKPLEAVLRYLETHPRPPKPDPVKSVSSVLSSLTPAKVAPVINNGSPTILGKRSYEQHNGVDGNMKKRLLMPSRGLANHGQARHMGPSRNLLLNGKSYPTKVRLIRGGSLPPVKRRRMNWIDAPDDVFYMATEETRKIRKLLSSSETKRAARRPYKPIALRQSQALPPRPPPPAPVNDEPIVIED
notes: also called metastasis-associated factors (MTA)
As to B2, the binding result in series [2] and in series [3] was “no binding” in each case.
